Assay results published in the supplement of paper PMC10567573.

B1: FCHSD1 (parent)
chain: LEAAEVILEHAHRGEQTTSQVSWE
B2: PBXIP1 (parent)
chain: LQQLRARLQGLEADCVRGPDGVCL

Variants of: B1
Assay: protein stability index of a GFP-peptide fusion (GPS, HEK-293T) (PSI 1-6); higher = more stable
Settings: c terminus: a fixed tail appended
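Note: lentivirally expressed fusions sorted by FACS into six bins by GFP to DsRed ratio, PSI derived from sequencing read proportions per bin multiplied by bin number.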

Variant	protein stability index
LEAACVILEHAHRGEQTTSQVSWE	2.82
LEAAAVILEHAHRGEQTTSQVSWE	2.84
PEAAEVILEHAHRGEQTTSQVSWE	5.11
VEAAEVILEHAHRGEQTTSQVSWE	4.7
REAAEVILEHAHRGEQTTSQVSWE	4.52
KEAAEVILEHAHRGEQTTSQVSWE	4.67
FEAAEVILEHAHRGEQTTSQVSWE	3.33
MEAAEVILEHAHRGEQTTSQVSWE	4.58
EEAAEVILEHAHRGEQTTSQVSWE	4.55
YEAAEVILEHAHRGEQTTSQVSWE	5
DEAAEVILEHAHRGEQTTSQVSWE	4.42
HEAAEVILEHAHRGEQTTSQVSWE	4.88
TEAAEVILEHAHRGEQTTSQVSWE	5.34
IEAAEVILEHAHRGEQTTSQVSWE	4.12
QEAAEVILEHAHRGEQTTSQVSWE	4.92
WEAAEVILEHAHRGEQTTSQVSWE	3.35
NEAAEVILEHAHRGEQTTSQVSWE	4.61
SEAAEVILEHAHRGEQTTSQVSWE	4
CEAAEVILEHAHRGEQTTSQVSWE	4.8
LESAEVILEHAHRGEQTTSQVSWE	5.35
LELAEVILEHAHRGEQTTSQVSWE	3.71
LEQAEVILEHAHRGEQTTSQVSWE	4.79

Variant	protein stability index
LEHAEVILEHAHRGEQTTSQVSWE	3.86
LEVAEVILEHAHRGEQTTSQVSWE	2.89
LEDAEVILEHAHRGEQTTSQVSWE	5.14
LERAEVILEHAHRGEQTTSQVSWE	4.41
LEEAEVILEHAHRGEQTTSQVSWE	4.74
LENAEVILEHAHRGEQTTSQVSWE	4.43
LEGAEVILEHAHRGEQTTSQVSWE	4.53
LEIAEVILEHAHRGEQTTSQVSWE	2.88
LECAEVILEHAHRGEQTTSQVSWE	4.92
LEMAEVILEHAHRGEQTTSQVSWE	3.65
LETAEVILEHAHRGEQTTSQVSWE	4.49
LEYAEVILEHAHRGEQTTSQVSWE	3.6
LEKAEVILEHAHRGEQTTSQVSWE	4.57
LEANEVILEHAHRGEQTTSQVSWE	4.52
LEAGEVILEHAHRGEQTTSQVSWE	5.06
LEADEVILEHAHRGEQTTSQVSWE	3.59
LEAEEVILEHAHRGEQTTSQVSWE	5.11
LEAMEVILEHAHRGEQTTSQVSWE	2.35
LEAIEVILEHAHRGEQTTSQVSWE	2.56
LEAFEVILEHAHRGEQTTSQVSWE	2.35
LEAKEVILEHAHRGEQTTSQVSWE	4.24
LEAREVILEHAHRGEQTTSQVSWE	3.59

Variant	protein stability index
LEAPEVILEHAHRGEQTTSQVSWE	5.19
LEAHEVILEHAHRGEQTTSQVSWE	4.46
LEACEVILEHAHRGEQTTSQVSWE	4.59
LEATEVILEHAHRGEQTTSQVSWE	3.82
LEAYEVILEHAHRGEQTTSQVSWE	2.48
LEAVEVILEHAHRGEQTTSQVSWE	3.15
LEALEVILEHAHRGEQTTSQVSWE	2.59
LKAAEVILEHAHRGEQTTSQVSWE	3.93
LHAAEVILEHAHRGEQTTSQVSWE	4.72
LIAAEVILEHAHRGEQTTSQVSWE	2.5
LQAAEVILEHAHRGEQTTSQVSWE	4.41
LTAAEVILEHAHRGEQTTSQVSWE	3.6
LFAAEVILEHAHRGEQTTSQVSWE	2.21
LCAAEVILEHAHRGEQTTSQVSWE	1.85
LDAAEVILEHAHRGEQTTSQVSWE	4.31
LNAAEVILEHAHRGEQTTSQVSWE	4.42
LSAAEVILEHAHRGEQTTSQVSWE	3.7
LAAAEVILEHAHRGEQTTSQVSWE	3.94
LMAAEVILEHAHRGEQTTSQVSWE	3.79
LRAAEVILEHAHRGEQTTSQVSWE	3.84
LPAAEVILEHAHRGEQTTSQVSWE	4.32

Variants of: B2
Assay: as above
Settings: c terminus: a fixed tail appended

Variant	protein stability index
LQQLRARLQGLEADCVRAPDGVCL	2.97
LQQLRARLQGLEADCVRPPDGVCL	1.78
LQQLRARLQGLEADCVRHPDGVCL	2.39
LQQLRARLQGLEADCVRMPDGVCL	2.32
LQQLRARLQGLEADCVRIPDGVCL	1.87
LQQLRARLQGLEADCVRCPDGVCL	2.23
LQQLRARLQGLEADCVRFPDGVCL	1.47
LQQLRARLQGLEADCVRYPDGVCL	1.93
LQQLRARLQGLEADCVRQPDGVCL	2.9
LQQLRARLQGLEADCVRWPDGVCL	2.54
LQQLRARLQGLEADCVRVPDGVCL	3.65
LQQLRARLQGLEADCVRKPDGVCL	2.27
LQQLRARLQGLEADCVRDPDGVCL	3.74
LQQLRARLQGLEADCVRGPIGVCL	1.9
LQQLRARLQGLEADCVRGPEGVCL	1.89
LQQLRARLQGLEADCVRGPWGVCL	1.84
LQQLRARLQGLEADCVRGPMGVCL	1.53
LQQLRARLQGLEADCVRGPVGVCL	1.8
LQQLRARLQGLEADCVRGPKGVCL	2.08
LQQLRARLQGLEADCVRGPQGVCL	3.03
LQQLRARLQGLEADCVRGPPGVCL	1.5
LQQLRARLQGLEADCVRGPTGVCL	2.12
LQQLRARLQGLEADCVRGPYGVCL	1.26
LQQLRARLQGLEADCVRGPGGVCL	2.45
LQQLRARLQGLEADCVRGPRGVCL	2.54
LQQLRARLQGLEADCVRGPAGVCL	2.03
LQQLRARLQGLEADCVRGPHGVCL	1.6
LQQLRARLQGLEADCVRGVDGVCL	2.65
LQQLRARLQGLEADCVRGRDGVCL	1.41
